The text below walks through data of article PMC4908968.

The stoichiometry N is the number of molecules, sites or subunits per partner or assembly.

For experiment [1], the target named is Full-length (FL) MMTV integrase (IN), wild type (mouse mammary tumor virus (MMTV)). Nature of the experiment: SEC.
For experiment [2] the target is unchanged. Nature of the experiment: AUC.

For the substance “Full-length (FL) MMTV integrase (IN), wild type (enzyme)”, the stoichiometry N in experiment [1] was 2; in experiment [2], 8.
